We go through five molecules from US9243044B2, “Anticoagulant polypeptide and applications thereof” (GUANGDONG MEDICAL COLLEGE, priority 2011, dated 2016).

What all share (assay type): biochemical
The test system of test [1] is normal human plasma. The test can be described thus: aPTT assay in normal human plasma. The settings on record: for prolongation of aPTT (in words): 100 nM and 500 nM; for aPTT: normal human plasma; for multiples of prolonging aPTT: ratio of mean aPTT to blank control. On the procedure:
(§1) The recombinant anticoagulant polypeptides were expressed in Escherichia coli and purified in our laboratory. Anticoagulant activity was determined by measuring the aPTT and PT.
For the aPTT assay, 10 μl recombinant protein at various concentrations was mixed with 50 μl fresh normal human plasma, 20 μl aPTT reagent (MDC Hemostasis, Germany) and incubated for 15 mins at 37° C. 20 μl 0.05 mol/L prewarmed CaCl2 was then added to initiate the clotting reaction. The clotting time was measured with the absorbance at 630 nm by using an E1x808 kinetic microtiter reader (BioTek, United States). Each concentration was repeated 3 times. The ratio of the mean aPTT value of each concentration to blank control group is multiples of prolonging the aPTT.

Test [2] concerns normal human plasma. The test can be described thus: PT assay in normal human plasma. The settings on record: for PT: normal human plasma. How it is done:
as §1
For the PT assay, 10 μl recombinant protein at various concentration was mixed with 45 μl normal human plasma and incubated for 15 mins at 37° C. 45 μl prewarmed PT reagent (MDC Hemostasis, Germany) was then added and the clotting time was measured with the absorbance at 630 nm by using an E1x808 kinetic microtiter reader (BioTek, United States). Each concentration was repeated 3 times.

Test [3] addresses T1, human fXIa (Homo sapiens, UniProt P03951).
T1 construct: Human coagulation factors IIa (thrombin), Xa, XIa, XIIa, EGR-fXa; purchased Haematologic Technologies Inc (United States)
Put plainly: Chromogenic assay, fXIa. The note with it: for inhibition of the activity of fXIa: 100 nM; for inhibition of the activity of fXIa (in words): 200 nM. The text has this: (§2) The recombinant anticoagulant polypeptides in the present invention were expressed in E. coli and purified in our laboratory, of which the activities against coagulation factors were investigated by chromogenic assays. Human coagulation factors IIa (thrombin), Xa, XIa, XIIa, EGR-fXa were products of Haematologic Technologies Inc (United States). Recombinant fVIIa was products of Novo-Nordisk (Denmark). Recombinant soluble tissue factor (sTF) was purchased from Protgen (Beijing, China). The following chromogenic substrates were used for these coagulation factor assays: S2765 for human fXa, S2288 for human fVIIa and fIIa, 52366 for human fXIa and fXIIa, respectively.
(§3) The chromogenic assays were carried out in a total reaction volume of 100 μl in individual wells of a 96-well microtiter plate. 50 μl fIIa, fXa, fXIa, or fXIIa (final concentration: 1 nM) was incubated with 10 μl recombinant anticoagulant polypeptide at various concentrations (or PBS control group) Assays for the detection activity of fVIIa: 50 μl fVIIa+TF (1 μM) and EGR-fXa (final concentration 500 nM) was incubated for 15 mins at 25° C., respectively. After the addition of 40 μl of prewarmed chromogenic substrate to a final concentration of 400 μM, the changes of absorbance at 405 nm were monitored by using an E1x808 kinetic microtiter reader. The data were used to calculate the velocities of response.

Test [4] has as its target T2, human fIIa (thrombin) (Homo sapiens, UniProt P00734).
T2 construct: Human coagulation factors IIa (thrombin), Xa, XIa, XIIa, EGR-fXa; purchased Haematologic Technologies Inc (United States)
The test can be described thus: Chromogenic assay, fIIa (thrombin).
Source text: as §2, §3

The target in test [5] is T3, human fXa (Homo sapiens, UniProt P00742).
T3 construct: Human coagulation factors IIa (thrombin), Xa, XIa, XIIa, EGR-fXa; purchased Haematologic Technologies Inc (United States)
T3 sequence (P00742 41-179 limits assumed): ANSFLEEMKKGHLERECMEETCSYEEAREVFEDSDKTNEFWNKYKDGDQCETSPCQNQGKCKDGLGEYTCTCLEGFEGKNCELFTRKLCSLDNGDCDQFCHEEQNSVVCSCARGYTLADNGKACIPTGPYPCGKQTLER
T3 sequence (P00742 235-488 limits assumed): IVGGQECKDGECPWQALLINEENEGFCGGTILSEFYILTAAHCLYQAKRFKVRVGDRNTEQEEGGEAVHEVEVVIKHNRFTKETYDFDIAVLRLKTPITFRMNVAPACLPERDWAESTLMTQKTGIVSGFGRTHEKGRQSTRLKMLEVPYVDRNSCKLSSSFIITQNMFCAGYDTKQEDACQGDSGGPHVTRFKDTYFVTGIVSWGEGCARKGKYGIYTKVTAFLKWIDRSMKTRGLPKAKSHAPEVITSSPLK
The test can be described thus: Chromogenic assay, fXa.
Source text: as §2, §3

Test [6] deals with T4, human fXIIa (Homo sapiens, UniProt P00748).
T4 construct: Human coagulation factors IIa (thrombin), Xa, XIa, XIIa, EGR-fXa; purchased Haematologic Technologies Inc (United States)
T4 sequence (P00748 373-615 limits assumed): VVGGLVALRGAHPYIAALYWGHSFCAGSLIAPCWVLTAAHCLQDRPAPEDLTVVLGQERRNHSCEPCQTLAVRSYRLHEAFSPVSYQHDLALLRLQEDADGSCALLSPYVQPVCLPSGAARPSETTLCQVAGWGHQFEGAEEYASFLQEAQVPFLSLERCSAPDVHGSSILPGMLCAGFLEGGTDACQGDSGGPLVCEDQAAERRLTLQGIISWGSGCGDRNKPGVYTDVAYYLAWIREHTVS
T4 sequence (P00748 20-372 limits assumed): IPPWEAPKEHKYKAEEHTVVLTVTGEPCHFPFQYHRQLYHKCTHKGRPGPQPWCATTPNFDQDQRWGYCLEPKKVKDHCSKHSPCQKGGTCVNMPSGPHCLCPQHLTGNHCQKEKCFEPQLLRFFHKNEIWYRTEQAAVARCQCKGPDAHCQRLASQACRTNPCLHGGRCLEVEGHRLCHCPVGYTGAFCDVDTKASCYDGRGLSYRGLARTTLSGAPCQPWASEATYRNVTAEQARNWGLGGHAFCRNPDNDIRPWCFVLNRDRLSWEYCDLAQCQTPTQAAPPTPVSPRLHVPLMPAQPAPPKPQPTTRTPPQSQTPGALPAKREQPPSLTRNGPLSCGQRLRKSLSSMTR
The test can be described thus: Chromogenic assay, fXIIa.
Source text: as §2, §3

The target in test [7] is T5, fVIIa/TF (Homo sapiens, UniProt P08709).
T5 construct: Recombinant fVIIa was products of Novo-Nordisk (Denmark); purchased Novo-Nordisk (Denmark) for fVIIa; Protgen (Beijing, China) for sTF; Haematologic Technologies Inc for EGR-fXa
T5 sequence (P08709 61-212 limits assumed): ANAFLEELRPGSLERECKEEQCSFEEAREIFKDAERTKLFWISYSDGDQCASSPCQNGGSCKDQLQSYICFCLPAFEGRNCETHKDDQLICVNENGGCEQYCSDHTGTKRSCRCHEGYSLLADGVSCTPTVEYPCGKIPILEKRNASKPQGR
T5 sequence (P08709 213-466 limits assumed): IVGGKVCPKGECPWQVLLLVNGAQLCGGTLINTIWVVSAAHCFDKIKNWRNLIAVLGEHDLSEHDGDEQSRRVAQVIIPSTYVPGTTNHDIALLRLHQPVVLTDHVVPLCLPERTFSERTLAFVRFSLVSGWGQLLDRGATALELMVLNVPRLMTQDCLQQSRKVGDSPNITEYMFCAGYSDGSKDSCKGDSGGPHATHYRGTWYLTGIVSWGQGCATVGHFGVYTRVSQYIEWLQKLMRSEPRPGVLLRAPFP
T5 sequence (P13726 33-251 partner limits assumed): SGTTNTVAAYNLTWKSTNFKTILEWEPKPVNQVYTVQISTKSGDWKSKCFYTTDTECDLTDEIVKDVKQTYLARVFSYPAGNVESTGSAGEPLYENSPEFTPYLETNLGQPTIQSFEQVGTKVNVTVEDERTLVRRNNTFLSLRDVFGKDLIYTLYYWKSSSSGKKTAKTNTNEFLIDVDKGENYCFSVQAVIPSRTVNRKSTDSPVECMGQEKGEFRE
The test can be described thus: Chromogenic assay, fVIIa/TF.
Source text: as §2, §3

T1 sequence (P03951 19-387 limits assumed): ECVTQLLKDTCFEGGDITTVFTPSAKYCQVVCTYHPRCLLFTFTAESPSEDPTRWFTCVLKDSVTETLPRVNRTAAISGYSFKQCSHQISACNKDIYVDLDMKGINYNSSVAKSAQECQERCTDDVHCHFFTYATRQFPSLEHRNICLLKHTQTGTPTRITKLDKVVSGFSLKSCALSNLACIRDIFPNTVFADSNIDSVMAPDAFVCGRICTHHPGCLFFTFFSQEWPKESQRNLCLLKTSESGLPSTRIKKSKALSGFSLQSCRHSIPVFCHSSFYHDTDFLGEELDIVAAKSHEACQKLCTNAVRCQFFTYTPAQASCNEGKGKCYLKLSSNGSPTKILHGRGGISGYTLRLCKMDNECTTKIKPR
T1 sequence (P03951 388-625 limits assumed): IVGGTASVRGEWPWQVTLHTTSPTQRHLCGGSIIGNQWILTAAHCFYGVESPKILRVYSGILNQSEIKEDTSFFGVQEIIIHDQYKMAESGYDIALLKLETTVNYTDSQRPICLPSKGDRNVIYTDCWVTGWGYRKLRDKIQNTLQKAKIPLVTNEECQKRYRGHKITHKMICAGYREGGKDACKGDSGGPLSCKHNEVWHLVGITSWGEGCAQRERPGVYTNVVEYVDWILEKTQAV

B1: NAPTin-2 (protein)
chain: NPSCGENERHDECSRKECDPKCKYDGTEEKDDEKPVVCLTRVCYGDCICRDGFLRNKNGACVKAEDCELDN
modifications: Sequence derived from Ancylostoma caninum or Synthetic
As for B1, in test [1], the “prolongation of aPTT (in words)” value was “significantly prolong aPTT”. Further, the figures for the “aPTT” value in test [1] (100 nM) and in test [1] (500 nM) were 80.2 ± 5.1 s and 221.8 ± 6.3 s, respectively. For the same molecule, the “multiples of prolonging aPTT” value came out at 2.0 in test [1] (100 nM) and 5.53 in test [1] (500 nM). Moreover, the “prolongation of PT (in words)” value in test [2] (100 nM and 500 nM) is “couldn't prolong PT”. Besides, the “PT” value in test [2] (100 nM) worked out at 11.7 ± 1.1 s; in test [2] (500 nM), 12.6 ± 0.5 s. In addition, the “inhibition of the activity of fXIa” value in test [3] is on record as “more than 90%”. Also, the “inhibition of the activity of fXIa (in words)” value (shortened to “inhibition … (in words)”) in test [3] is “almost completely inhibited”. Besides, the “effect on fIIa activity (in words)” value in test [4] (100 nM) and in test [4] (200 nM) was “without affecting” throughout. Moreover, the “effect on fXa activity (in words)” value in test [5] (100 nM) and in test [5] (200 nM) was “without affecting” each time. The “effect on fXIIa activity (in words)” value in test [6] (100 nM) and in test [6] (200 nM) was “without affecting” in each case. The “effect on fVIIa/TF activity (in words)” value in test [7] (100 nM) and in test [7] (200 nM) was “without affecting” throughout.

B2: NAPTin-8 (protein)
chain: NPSCGENERHDECSRKECDPKCKYDGTEEKDDEKPVVCLTRVCYGDCICRDGFLRNKNGACVKAEDCELDNMEF
modifications: Sequence derived from Ancylostoma caninum or Synthetic
For B2, the “prolongation of aPTT (in words)” value in test [1] was “significantly prolong aPTT”. In addition, in test [1] (100 nM), the “aPTT” value came to 79.7 ± 2.9 s and the “multiples of prolonging aPTT” value is 1.99. Further, in test [1] (500 nM), the “aPTT” value turned out to be 238.6 ± 8.1 s and the “multiples of prolonging aPTT” value amounted to 5.95. For the same molecule, in test [2] (100 nM), the “prolongation of PT (in words)” value is given as “almost couldn't prolong PT” and the “PT” value amounted to 12.8 ± 0.7 s. Besides, in test [2] (500 nM), the “prolongation of PT” value was “less than 1.6 times” and the “PT” value turned out to be 17.6 ± 0.6 s. In addition, the “inhibition of the activity of fXIa” value in test [3] is on record as “more than 90%”. Besides, the “effect on fIIa activity (in words)” value in test [4] (100 nM) is listed as “without affecting”. The “effect on fXa activity (in words)” value in test [5] (100 nM) was “without affecting”. Moreover, the “effect on fXIIa activity (in words)” value in test [6] (100 nM) was “without affecting”. The “effect on fVIIa/TF activity (in words)” value in test [7] (100 nM) is listed as “without affecting”. Also, in test [7] (200 nM), the “inhibition of the activity of fVIIa/TF” value was “about 15%”.

B3: NAPTin-4 (protein)
chain: NPSCGENERHDECSRKECDPKCKYDGTEEKDDEKPVVCLTRVCYGDCICRDGFLRNKNGACVKAEDCELDNME
modifications: Sequence derived from Ancylostoma caninum or Synthetic
As for B3, the “prolongation of aPTT (in words)” value in test [1] is recorded as “significantly prolong aPTT”. Also, the “aPTT” value turned out to be 78.7 ± 3.7 s in test [1] (100 nM) and 233.3 ± 4.5 s in test [1] (500 nM). Besides, the results for the “multiples of prolonging aPTT” value in test [1] (100 nM) and in test [1] (500 nM) were 1.96 and 5.82, respectively. Also, the “prolongation of PT (in words)” value in test [2] (100 nM and 500 nM) was “couldn't prolong PT”. Also, the “PT” value in test [2] (100 nM) stood at 12.4 ± 0.9 s; in test [2] (500 nM), 11.6 ± 0.3 s. The “inhibition of the activity of fXIa” value in test [3] is given as “more than 90%”. Besides, in test [3], the “inhibition … (in words)” value is listed as “almost completely inhibited”. For the same molecule, the “effect on fIIa activity (in words)” value in test [4] (100 nM) and in test [4] (200 nM) was “without affecting” each time. In addition, the “effect on fXa activity (in words)” value in test [5] (100 nM) and in test [5] (200 nM) was “without affecting” throughout. For the same molecule, the “effect on fXIIa activity (in words)” value in test [6] (100 nM) and in test [6] (200 nM) was “without affecting” in each case. The “effect on fVIIa/TF activity (in words)” value in test [7] (100 nM) and in test [7] (200 nM) was “without affecting” in each case.

B4: NAPTin-6 (protein)
chain: NPSCGENERHDECSRKECDPKCKYDGTEEKDDEKPVVCLTRVCYGDCICRDGFLRNKNGACVKAEDCE
modifications: Sequence derived from Ancylostoma caninum or Synthetic
On to B4, for which the “prolongation of aPTT (in words)” value in test [1] was “significantly prolong aPTT”. For the same molecule, the results for the “aPTT” value in test [1] (100 nM) and in test [1] (500 nM) were 79.5 ± 3.1 s and 215.4 ± 5.6 s, respectively. Also, the “multiples of prolonging aPTT” value was 1.98 in test [1] (100 nM) and 5.37 in test [1] (500 nM). Further, the “prolongation of PT (in words)” value in test [2] (100 nM and 500 nM) was “couldn't prolong PT”. The “PT” value in test [2] (100 nM) is 12.4 ± 0.9 s; in test [2] (500 nM) it was 12.6 ± 0.4 s. For the same molecule, the “inhibition of the activity of fXIa” value in test [3] was “more than 90%”. The “inhibition … (in words)” value in test [3] is “almost completely inhibited”. The “effect on fIIa activity (in words)” value in test [4] (100 nM) and in test [4] (200 nM) was “without affecting” each time. Also, the “effect on fXa activity (in words)” value in test [5] (100 nM) and in test [5] (200 nM) was “without affecting” throughout. The “effect on fXIIa activity (in words)” value in test [6] (100 nM) and in test [6] (200 nM) was “without affecting” each time. Besides, the “effect on fVIIa/TF activity (in words)” value in test [7] (100 nM) and in test [7] (200 nM) was “without affecting” each time.

B5: NAPTin-9 (protein)
chain: NPSCGENERHDECSRKECDPKCKYDGTEEKDDEKPVVCLTRVCYGDCICRDGFLRNKNGACVKAEDCELDNMEFI
modifications: Sequence derived from Ancylostoma caninum or Synthetic
On to B5, for which the “prolongation of aPTT (in words)” value in test [1] is listed as “significantly prolong aPTT”. Further, in test [1] (100 nM), the “aPTT” value amounted to 80.8 ± 3.2 s and the “multiples of prolonging aPTT” value worked out at 2.01. In test [1] (500 nM), the “aPTT” value was determined as 235.3 ± 5.4 s and the “multiples of prolonging aPTT” value was 5.87. In test [2] (100 nM), the “prolongation of PT (in words)” value was “almost couldn't prolong PT” and the “PT” value was 13.0 ± 0.7 s. Besides, in test [2] (500 nM), the “prolongation of PT” value is on record as “less than 1.6 times” and the “PT” value amounted to 19.6 ± 0.9 s. Besides, the “inhibition of the activity of fXIa” value in test [3] was “more than 90%”. Also, the “effect on fIIa activity (in words)” value in test [4] (100 nM) is recorded as “without affecting”. For the same molecule, the “effect on fXa activity (in words)” value in test [5] (100 nM) was “without affecting”. In addition, in test [6] (100 nM), the “effect on fXIIa activity (in words)” value is given as “without affecting”. Moreover, the “effect on fVIIa/TF activity (in words)” value in test [7] (100 nM) is “without affecting”. Also, the “inhibition of the activity of fVIIa/TF” value in test [7] (200 nM) is reported as “about 15%”.
